# Laboratory results: US20100325744A1
# Legend:
# 2F8-HG (human) [1] = assay: self-association; non-covalent nano-electrospray mass spectrometry at 0.01-10 µM
# 2F8-HG (human) [2] = assay: self-association of HG half-molecules; non-covalent nano-electrospray mass spectrometry
substance,measurement,setting,value
2F8-HG (antibody),percentage monomeric at low concentrations,2F8-HG (human) [1],100%
same,percentage molecules present as monomers,2F8-HG (human) [2],15%
